# Measured values reported in PMC3222648, “Inotropic Action of the Puberty Hormone Kisspeptin in Rat, Mouse and Human: Cardiovascular Distribution and Characteristics of the Kisspeptin Receptor” (PLoS ONE, 2011).
# Several values for one entry are separate records, joined by “and”; a condition that tells them apart may be missing. Equal values may be shown once. Read-outs that look alike come from different tables or passages of the source. Where no end group is shown, it is not given here.
# B1: Kisspeptin receptor (protein)
# chain: MAAEATLGPNVSWWAPSNASGCPGCGVNASDGPGSAPRPLDAWLVPLFFAALMLLGLVGNSLVIFVICRHKHMQTVTNFYIANLAATDVTFLLCCVPFTALLYPLPTWVLGDFMCKFVNYIQQVSVQATCATLTAMSVDRWYVTVFPLRALHRRTPRLALTVSLSIWVGSAAVSAPVLALHRLSPGPHTYCSEAFPSRALERAFALYNLLALYLLPLLATCACYGAMLRHLGRAAVRPAPTDGALQGQLLAQRAGAVRTKVSRLVAAVVLLFAACWGPIQLFLVLQALGPSGAWHPRSYAAYALKIWAHCMSYSNSALNPLLYAFLGSHFRQAFCRVCPCGPQRQRRPHASAHSDRAAPHSVPHSRAAHPVRVRTPEPGNPVRRSPSVQDEHTAPL
# Key:
# [1] = cited from earlier work
# Description: Our discovery that kisspeptins are positive inotropic agents in human and rodent heart is the first report of such activity. […] Activation of these signaling pathways would be consistent with function as both an inotropic a ...
# native human tissue = conditions: ref [40]; cited from earlier work
# kisspeptin receptor [2] = conditions: ref [3]; cited from earlier work
# Description: Kisspeptin, or KP-54, is a member of a larger group of peptides, the RF amides, named after their shared C-terminal amino acids. RF amides have wide ranging roles in reproduction, feeding, blood pressure regulation and pain modulation with kisspeptins most closely implicated in reproduction and energy balance, [23]–[27]. KP-54 is cleaved from a single precursor, encoded by the KISS1 gene, and smaller fragments of kisspeptin have been identified that are cleaved from KP-54 by unidentified proteases.
# human heart = conditions: ref [39]; cited from earlier work
# Description: The RF-amide peptide family, which also includes prolactin releasing peptide, are known to have roles in cardiovascular regulation, both centrally and peripherally, [35]. However, to date mRNA studies of kisspeptin receptor distribution in whole heart samples have reported low but varying mRNA expression by northern blot, expression was not detected by PCR [3], [4], [32] except by Sawyer and colleagues, who were also able to detect mRNA encoding murine kisspeptin, albeit at very low copy number. We now report for the first time, the expression of kisspeptin a ...
# kisspeptin receptor [3] = target: T1, kisspeptin receptor (Rattus norvegicus, UniProt Q924U1); assay: [^125I]KP-14 receptor autoradiography, rat cardiovascular tissue sections; type: binding; conditions: for [^125I]KP-14 specific binding: 0.2 nM [^125I]KP-14, 2 h, pH 7.4, non-specific: 1 µM KP-10, mean ± SEM
# Description: (§1) For receptor autoradiography, cryostat-cut sections of human (15 µm) or rat (10 µm) heart were pre-incubated with phosphate binding buffer (mM: NaH2PO4, 50; NaCl, 100; EDTA, 5; MgCl2, 5; protease inhibitor cocktail, 1; pH 7.4) before incubation for 2 h with 0.2 nM [^125I]KP-14 [31]. […] Equilibrium was broken by washing in 50 mM Tris-HCl buffer, pH 7.4, 4°C before air-drying and apposition to radiation-sensitive film (Kodak Biomax MR) and determination of specific binding by computer-assisted densitometry using the Quantimet 970 system (Leica Microsystems, Bucks, UK).
# kisspeptin receptor [4] = target: T2, kisspeptin receptor (Homo sapiens, UniProt Q969F8); assay: [^125I]KP-14 receptor autoradiography, human cardiovascular tissue sections; type: binding; conditions: for [^125I]KP-14 specific binding: 0.2 nM [^125I]KP-14, 2 h, mean ± SEM
# T2 construct: cryostat-cut sections of human (15 µm) or rat (10 µm) heart; from tissue; host or cells: human right atria (control, dilated cardiomyopathy, ischaemic heart disease), cryostat sections
# Description: as §1
# kisspeptin receptor [5] = target: T1, kisspeptin receptor; assay: [^125I]KP-14 saturation binding, rat heart sections
# Description: (§2) [^125I]KP-14 binding was detected using a gamma counter to measure disintegrations per minute (dpm) and total protein content was calculated using the Biorad 96-well microtiter plate system. Radioligand binding study data were analyzed using the iterative, non-linear curve fitting programs EBDA and LIGAND in the KELL package (Biosoft, Cambridge, UK). Pooled KD, BMAX and Hill slopes (nH) were expressed as mean±SEM and normalized to protein concentrations. […] Where appropriate, values were compared by one-way analysis of variance (ANOVA). In all cases P<0.05 was considered statistically significant and n-values were the number of animals or patients from which data were obtained.
# kisspeptin receptor [6] = target: T2, kisspeptin receptor; assay: [^125I]KP-14 saturation binding, human right atria sections; conditions: for BMAX (receptor density) / nH (Hill coefficient): mean ± SEM, n = 3
# Description: as §2
# KP-14 = target: T3, KP-14 (Homo sapiens, UniProt Q15726, ends and bridges not checked; also: 125I-labelled); assay: saturation radioligand binding, heart sections
# T3 chain: DLPNYNWNSFGLRF
# [7] = human right atria, dilated cardiomyopathy (DCM)
# [8] = human right atria, ischaemic heart disease (IHD)
# T2 sequence (Q969F8 whole entry): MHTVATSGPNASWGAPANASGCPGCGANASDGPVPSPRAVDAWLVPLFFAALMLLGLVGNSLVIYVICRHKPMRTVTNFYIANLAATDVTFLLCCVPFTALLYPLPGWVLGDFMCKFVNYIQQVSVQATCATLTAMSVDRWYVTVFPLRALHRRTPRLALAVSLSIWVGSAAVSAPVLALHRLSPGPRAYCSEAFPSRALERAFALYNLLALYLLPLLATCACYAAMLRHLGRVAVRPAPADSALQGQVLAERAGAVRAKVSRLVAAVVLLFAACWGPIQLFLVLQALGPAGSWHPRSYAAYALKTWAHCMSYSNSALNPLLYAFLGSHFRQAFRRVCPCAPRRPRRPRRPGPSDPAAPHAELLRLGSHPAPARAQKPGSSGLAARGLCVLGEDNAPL
molecule,measurement,setting,value
apelin,pD2 (inotropic effect),[1]; ref [44],9.9
same,BMAX,native human tissue,3.1 fmol/mg
endothelin,pD2 (inotropic effect),[1]; ref [43],8.9
"KP-13: smaller fragment of kisspeptin cleaved from KP-54 (LPNYNWNSFGLRF; ends and bridges not checked; UniProt Q15726 109-121, looked up)",biological activity of fragment,kisspeptin receptor [2],retain biological activity
"urotensin-II: vasoactive peptide and potent inotrope in human heart (ETPDCFWKYCV; ends and bridges not checked; cysteine pairing not given here; UniProt O95399 114-124, looked up)",inotropic activity (in words),human heart,potent inotrope in human heart
"[^125I]KP-14: radioligand (2000 Ci/mmol) prepared from unlabelled KP-14 by direct iodination using the chloramine-T method (DLPNYNWNSFGLRF; not fully specified; ends and bridges not checked; also: 125I radiolabel, site not given here; UniProt Q15726 108-121, looked up)",[^125I]KP-14 specific binding,"kisspeptin receptor [3]; rat aorta, n = 3",21±2 amol mm^−2
same,[^125I]KP-14 specific binding,"kisspeptin receptor [3]; rat heart, n = 5",29±10 amol mm^−2
same,specific binding of [^125I]KP-14 (in words),"kisspeptin receptor [3]; rat myocardium, rat aorta smooth muscle",observed in all regions of human and rat myocardium
same,[^125I]KP-14 specific binding,"kisspeptin receptor [4]; human aorta, pH 7.4, n = 6",214±46 amol mm^−2
same,[^125I]KP-14 specific binding,"kisspeptin receptor [4]; human apex, pH 7.4, n = 4",27±6 amol mm^−2
same,[^125I]KP-14 specific binding,"kisspeptin receptor [4]; human atrial appendage, pH 7.4, n = 4",51±15 amol mm^−2
same,[^125I]KP-14 specific binding,"kisspeptin receptor [4]; human interventricular septum, pH 7.4, n = 3",29±10 amol mm^−2
same,[^125I]KP-14 specific binding,"kisspeptin receptor [4]; human left atria, phosphate binding buffer pH 7.4, non-specific: 10 µM KP-14, n = 3",59±16 amol mm^−2
same,[^125I]KP-14 specific binding,"kisspeptin receptor [4]; human left ventricle, pH 7.4, n = 3",34±8 amol mm^−2
same,specific binding of [^125I]KP-14 (in words),"kisspeptin receptor [4]; human myocardium, all regions, smooth muscle of human aorta and small coronary resistance vessels",observed in all regions of human and rat myocardium
same,[^125I]KP-14 specific binding,"kisspeptin receptor [4]; human right atria, pH 7.4, n = 3",36±7 amol mm^−2
same,[^125I]KP-14 specific binding,"kisspeptin receptor [4]; human right ventricle, pH 7.4, n = 3",31±7 amol mm^−2
same,[^125I]KP-14 specific binding,"kisspeptin receptor [4]; human small resistance vessel, pH 7.4, n = 5",4±3 amol mm^−2
same,Hill slopes (in words),kisspeptin receptor [5],close to unity
same,BMAX,"kisspeptin receptor [5]; mean ± SEM, n = 6",11 ± 2 fmol/mg
same,BMAX (receptor density),kisspeptin receptor [6]; control human right atria,8±5 fmol mg^−1 protein and 8.0±4.8 fmol mg^−1 protein
same,nH (Hill coefficient),kisspeptin receptor [6]; control human right atria,0.82±0.10
same,Hill slopes (in words),kisspeptin receptor [6]; human right atria,close to unity
same,difference in receptor density or binding affinity,"kisspeptin receptor [6]; human right atria, control vs DCM vs IHD",No significant difference in receptor density or binding affinity
same,BMAX (receptor density),kisspeptin receptor [6]; [7],10.2±3.4 fmol mg^−1 protein
same,nH (Hill coefficient),kisspeptin receptor [6]; [7],1.00±0.02
same,BMAX (receptor density),kisspeptin receptor [6]; [8],13.5±7.0 fmol mg^−1 protein
same,nH (Hill coefficient),kisspeptin receptor [6]; [8],0.94±0.03
"KP-14: smaller fragment of kisspeptin cleaved from KP-54; custom synthesised by Severn Biotech (DLPNYNWNSFGLRF-NH2; ends and bridges not checked; UniProt Q15726 108-121, looked up)",biological activity of fragment,kisspeptin receptor [2],retain biological activity
B1,Kd,KP-14,0.44 nM
